T1: APBA1_1, Q02410
T1 sequence (Q02410 651-752, limits assumed, looked up): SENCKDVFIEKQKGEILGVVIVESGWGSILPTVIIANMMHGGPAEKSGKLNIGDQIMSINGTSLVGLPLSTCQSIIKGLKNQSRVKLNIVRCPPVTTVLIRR

T2: DFNB31_1, Q9P202
T2 sequence (Q9P202 135-233, limits assumed, looked up): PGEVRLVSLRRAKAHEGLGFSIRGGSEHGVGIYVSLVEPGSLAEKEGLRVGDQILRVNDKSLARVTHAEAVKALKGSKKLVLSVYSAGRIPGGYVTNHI

T3: DVL3, Q92997
T3 sequence (Q92997 244-331, limits assumed, looked up): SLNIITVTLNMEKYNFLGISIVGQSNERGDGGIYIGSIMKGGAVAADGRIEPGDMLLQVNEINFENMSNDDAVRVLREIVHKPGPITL

T4: FRMPD1, Q5SYB0
T4 sequence (Q5SYB0 52-145, limits assumed, looked up): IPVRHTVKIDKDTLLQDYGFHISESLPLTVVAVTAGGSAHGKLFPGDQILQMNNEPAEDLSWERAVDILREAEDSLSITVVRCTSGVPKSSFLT

T5: HTRA4, P83105
T5 sequence (P83105 378-476, limits assumed, looked up): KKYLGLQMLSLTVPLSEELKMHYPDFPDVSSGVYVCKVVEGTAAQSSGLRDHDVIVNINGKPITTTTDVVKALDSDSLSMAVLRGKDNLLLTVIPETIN

T6: MPP2, Q14168
T6 sequence (Q14168 180-250, limits assumed, looked up): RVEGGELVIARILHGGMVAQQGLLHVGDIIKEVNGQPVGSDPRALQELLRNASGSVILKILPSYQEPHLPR

T7: MPP6, Q9NZW5
T7 sequence (Q9NZW5 125-219, limits assumed, looked up): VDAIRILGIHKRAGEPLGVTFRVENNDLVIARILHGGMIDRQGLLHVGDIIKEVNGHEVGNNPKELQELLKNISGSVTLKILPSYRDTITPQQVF

T8: MPP7, Q5T2T1
T8 sequence (Q5T2T1 134-230, limits assumed, looked up): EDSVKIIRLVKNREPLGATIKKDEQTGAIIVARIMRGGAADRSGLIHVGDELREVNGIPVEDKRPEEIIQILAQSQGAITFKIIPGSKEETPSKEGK

T9: NHERF3_1, Q5T2W1
T9 sequence (Q5T2W1 4-100, limits assumed, looked up): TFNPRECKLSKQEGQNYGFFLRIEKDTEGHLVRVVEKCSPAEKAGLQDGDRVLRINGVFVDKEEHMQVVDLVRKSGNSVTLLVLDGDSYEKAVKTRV

T10: NHERF3_3, Q5T2W1
T10 sequence (Q5T2W1 238-333, limits assumed, looked up): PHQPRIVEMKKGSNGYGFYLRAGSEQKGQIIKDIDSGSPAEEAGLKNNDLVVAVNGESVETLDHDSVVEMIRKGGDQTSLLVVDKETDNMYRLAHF

T11: PCLO, Q9Y6V0
T11 sequence (Q9Y6V0 4491-4600, limits assumed, looked up): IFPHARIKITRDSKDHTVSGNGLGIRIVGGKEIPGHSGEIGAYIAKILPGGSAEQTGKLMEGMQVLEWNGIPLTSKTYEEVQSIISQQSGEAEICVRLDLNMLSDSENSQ

T12: TJP3_3, O95049
T12 sequence (O95049 375-456, limits assumed, looked up): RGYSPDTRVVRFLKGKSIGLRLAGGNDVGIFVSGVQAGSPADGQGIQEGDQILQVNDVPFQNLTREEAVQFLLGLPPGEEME


Experiments:
Experiment in all cases: holdup assay
Set-up in all cases: key: below the threshold = too weak to quantify, mostly under pKd 3.1 to 4
Conditions in all cases: plain residues with an end cap or a label only (N-terminal biotin on a linker: ttds)
AHNAK1, Q09666 = molecular target: AHNAK1, Q09666
APBA1_1, Q02410 = molecular target: T1, APBA1_1, Q02410
ARHGEF12, Q9NZN5-2 = molecular target: ARHGEF12, Q9NZN5-2
DFNB31_1, Q9P202 = molecular target: T2, DFNB31_1, Q9P202
DLG4_1, P78352 = molecular target: DLG4_1, P78352
DVL3, Q92997 = molecular target: T3, DVL3, Q92997
FRMPD1, Q5SYB0 = molecular target: T4, FRMPD1, Q5SYB0
HTRA4, P83105 = molecular target: T5, HTRA4, P83105
Inadl_2, Q8NI35 = molecular target: Inadl_2, Q8NI35
Inadl_9, Q8NI35 = molecular target: Inadl_9, Q8NI35
LDB3, O75112 = molecular target: LDB3, O75112
LNX1_2, Q8TBB1 = molecular target: LNX1_2, Q8TBB1
MAST1, Q9Y2H9 = molecular target: MAST1, Q9Y2H9
MAST2, Q6P0Q8 = molecular target: MAST2, Q6P0Q8
MPP2, Q14168 = molecular target: T6, MPP2, Q14168
MPP6, Q9NZW5 = molecular target: T7, MPP6, Q9NZW5
MPP7, Q5T2T1 = molecular target: T8, MPP7, Q5T2T1
NHERF3_1, Q5T2W1 = molecular target: T9, NHERF3_1, Q5T2W1
NHERF3_3, Q5T2W1 = molecular target: T10, NHERF3_3, Q5T2W1
NHERF4_1, Q86UT5-2 = molecular target: NHERF4_1, Q86UT5-2
NHERF4_2, Q86UT5 = molecular target: NHERF4_2, Q86UT5
PCLO, Q9Y6V0 = molecular target: T11, PCLO, Q9Y6V0
PDLIM1, O00151 = molecular target: PDLIM1, O00151
SCRIB_2, Q14160 = molecular target: SCRIB_2, Q14160
SCRIB_3, Q14160 = molecular target: SCRIB_3, Q14160
TJP3_3, O95049 = molecular target: T12, TJP3_3, O95049

MAST2, Q6P0Q8, sequence (Q6P0Q8 1099-1202): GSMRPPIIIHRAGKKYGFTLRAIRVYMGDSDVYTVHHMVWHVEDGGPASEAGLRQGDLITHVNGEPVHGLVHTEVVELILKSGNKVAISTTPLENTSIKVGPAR
MAST1, Q9Y2H9, sequence (Q9Y2H9 962-1065): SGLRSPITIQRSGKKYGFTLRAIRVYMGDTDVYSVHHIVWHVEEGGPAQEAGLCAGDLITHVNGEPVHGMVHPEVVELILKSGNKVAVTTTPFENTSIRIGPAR
SCRIB_2, Q14160, sequence (Q14160 857-960): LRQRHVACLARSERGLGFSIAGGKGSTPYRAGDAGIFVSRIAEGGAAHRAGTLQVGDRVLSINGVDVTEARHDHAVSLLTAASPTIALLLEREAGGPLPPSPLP
SCRIB_3, Q14160, sequence (Q14160 999-1103): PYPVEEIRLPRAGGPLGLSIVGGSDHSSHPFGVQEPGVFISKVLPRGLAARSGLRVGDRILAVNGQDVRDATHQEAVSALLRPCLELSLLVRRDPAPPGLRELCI
Inadl_2, Q8NI35, sequence (Q8NI35 238-335): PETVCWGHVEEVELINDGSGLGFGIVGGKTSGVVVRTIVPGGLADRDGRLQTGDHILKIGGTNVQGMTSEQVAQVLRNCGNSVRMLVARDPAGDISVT
LNX1_2, Q8TBB1, sequence (Q8TBB1 371-470): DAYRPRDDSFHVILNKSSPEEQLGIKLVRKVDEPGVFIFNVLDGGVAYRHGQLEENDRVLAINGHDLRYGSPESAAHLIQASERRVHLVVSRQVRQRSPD
DLG4_1, P78352, sequence (P78352 62-152): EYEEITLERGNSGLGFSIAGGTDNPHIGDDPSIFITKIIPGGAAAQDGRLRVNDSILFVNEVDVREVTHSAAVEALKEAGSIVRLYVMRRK
PDLIM1, O00151, sequence (O00151 1-87): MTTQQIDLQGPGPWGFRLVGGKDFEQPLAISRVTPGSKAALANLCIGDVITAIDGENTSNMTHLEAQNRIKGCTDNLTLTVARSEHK
AHNAK1, Q09666, sequence (Q09666 4-100): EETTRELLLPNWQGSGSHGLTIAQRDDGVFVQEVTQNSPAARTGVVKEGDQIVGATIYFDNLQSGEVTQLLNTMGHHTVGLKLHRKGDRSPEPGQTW
LDB3, O75112, sequence (O75112 1-94): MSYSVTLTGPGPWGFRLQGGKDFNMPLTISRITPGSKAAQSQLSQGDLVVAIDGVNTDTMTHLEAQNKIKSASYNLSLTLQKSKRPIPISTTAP
NHERF4_2, Q86UT5, sequence (Q86UT5 220-308): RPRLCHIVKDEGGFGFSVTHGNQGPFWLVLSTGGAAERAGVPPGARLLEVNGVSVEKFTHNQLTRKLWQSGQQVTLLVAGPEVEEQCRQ
NHERF4_1, Q86UT5-2, sequence (Q86UT5 other isoform, or with tags, fused parts or gaps): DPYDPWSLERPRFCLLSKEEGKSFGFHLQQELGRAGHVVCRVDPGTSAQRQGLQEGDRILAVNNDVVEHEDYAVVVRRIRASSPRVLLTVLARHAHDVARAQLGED
ARHGEF12, Q9NZN5-2, sequence (Q9NZN5 other isoform, or with tags, fused parts or gaps): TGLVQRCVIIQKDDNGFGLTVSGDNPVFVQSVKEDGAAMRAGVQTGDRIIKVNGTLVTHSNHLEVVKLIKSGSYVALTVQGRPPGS
Inadl_9, Q8NI35, sequence (Q8NI35 1530-1615): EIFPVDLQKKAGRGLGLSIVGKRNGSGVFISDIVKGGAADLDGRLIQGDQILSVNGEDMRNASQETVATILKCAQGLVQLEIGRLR

Binder	pKd (AHNAK1, Q09666)	pKd (APBA1_1, Q02410)	pKd (ARHGEF12, Q9NZN5-2)	pKd (DFNB31_1, Q9P202)	pKd (DLG4_1, P78352)	pKd (DVL3, Q92997)	pKd (FRMPD1, Q5SYB0)	pKd (HTRA4, P83105)	pKd (Inadl_2, Q8NI35)	pKd (Inadl_9, Q8NI35)	pKd (LDB3, O75112)	pKd (LNX1_2, Q8TBB1)	pKd (MAST1, Q9Y2H9)	pKd (MAST2, Q6P0Q8)	pKd (MPP2, Q14168)	pKd (MPP6, Q9NZW5)	pKd (MPP7, Q5T2T1)	pKd (NHERF3_1, Q5T2W1)	pKd (NHERF3_3, Q5T2W1)	pKd (NHERF4_1, Q86UT5-2)	other results
IDNDTESTAL [ARHGAP17, Q68EM7]	below the threshold	below the threshold	4.77	3.84	below the threshold	below the threshold	below the threshold	below the threshold	below the threshold	below the threshold	below the threshold	below the threshold	4.91	below the threshold	below the threshold	below the threshold	below the threshold	5.25	below the threshold	4.16	pKd (NHERF4_2, Q86UT5): below the threshold; pKd (PCLO, Q9Y6V0): below the threshold; pKd (PDLIM1, O00151): below the threshold; pKd (SCRIB_2, Q14160): 3.61; pKd (SCRIB_3, Q14160): 4.57; pKd (TJP3_3, O95049): below the threshold
STLTIFETAL [ABCC4, O15439]	below the threshold	below the threshold	5.21	4.63	4.23	below the threshold	below the threshold	below the threshold	below the threshold	below the threshold	below the threshold	below the threshold	5.28	5.92	below the threshold	below the threshold	3.56	6.21	3.61	4.61	pKd (NHERF4_2, Q86UT5): below the threshold; pKd (PCLO, Q9Y6V0): below the threshold; pKd (PDLIM1, O00151): 3.85; pKd (SCRIB_2, Q14160): 4.92; pKd (SCRIB_3, Q14160): 5.59; pKd (TJP3_3, O95049): below the threshold

Reference: article PMC9482650, “Quantitative fragmentomics allow affinity mapping of interactomes” (Nature Communications, 2022)
